{
  "source": "patent US20230002728A1",
  "about": "“STEM CELL FATE ENGINEERING METHODS” (Wisconsin Alumni Research Foundation, priority 2021, published 2023)",
  "assay_type_in_all_cases": "cell-based, human",
  "key": {"H9 hESCs [1]": {"tested_on": "H9 hESCs", "test": "Localized cardiomyocyte differentiation on BMP4 patterns (cTnT immunostaining, day 8)", "details": "2.5 ng/μl BMP4 pattern, 5 μM IWP2 at day 3, day 8", "protocol": "For localized cardiomyocyte (CM) differentiation, 2.5 ng/μl BMP4 solution was placed in PDMS stencil masks on a TC-treated plate. Matrigel® coating and hPSC seeding was performed as described above. At day 1 and day 2, medium was changed with fresh RPMI B27−. Afterwards, CM differentiation was performed based on the GiWi protocol (Lian et al. (2013) Nature protocols 8, 162-175). At day 3, cells were treated with 5 μM IWP2 in fresh RPMI B27−. At day 5, medium was changed with fresh RPMI B27−. At day 7, medium was changed with fresh RPMI B27+. At day 8, a beating phenotype of patterned CM derived from H9-hTNNT2-GFP hESC was recorded using a fluorescence microscope (Nikon, Eclipse Ti2-E) equipped with a heating stage top incubator (Tokai Hit, Tokai Hit STX Series Stage Top Incubator System). Cells were also immunostained for analysis at day 8.\nBased on the results showing localized mesoderm differentiation on BMP-patterned substrates, mesodermal cells were examined to see if they could be further differentiated on these patterns into cardiomyocytes, a specialized mesodermal cell type. BMP4 patterns were used to direct mesoderm and Wnt inhibition by addition of IWP2 to the culture medium at day 3 to specify cardiac mesoderm and achieve patterned CM differentiation (FIG. 4A). The H9-hTNNT2-GFP hESC reporter line was used to visualize patterning of CMs in live cells. […]"}, "[2]": {"tested_on": "H9 hESC-derived cardiac progenitor cells (CPCs)", "test": "Localized EpiC differentiation of hPSC-derived cardiac progenitors on morphogen droplets (WT1 immunostaining)", "details": "droplets on TC-coated PS plate, 7d after cardiac progenitor seeding", "protocol": "For localized EpiC differentiation, BMP4 (2 ng/μl)+Wnt3a (40 ng/μl) solution was placed in PDMS stencil masks either on a TC-treated plate or an ibidi 35 mm polymer dish. Matrigel® coating was performed as described above. Cryopreserved CPCs were thawed and seeded at 500,000-550,000 cells/cm^2 in LaSR medium (advanced DMEM/F12 (Gibco, 12634-010) supplemented with 60 μg/ml ascorbic acid (Sigma, A8960) and 2.5 mM Glutamax (Gibco, 35050-061)) supplemented with 5 μM Y-27632). Medium was changed daily with fresh LaSR medium until analysis. Time lapse imaging of CPCs derived from H9-hTNNT2-GFP hESC during localized EpiC differentiation was performed using a fluorescence microscope equipped with a heating stage top incubator. 18 days after CPC seeding, cells cultured on an ibidi polymer dish were immunostained and imaged using a confocal microscope (Nikon, A1R-SI+) for the analysis of sarcomere structure.\nSpatial organization of cell fate commitment is important throughout development. […] These cardiac progenitors can further differentiate into CMs without any specific external signaling factors and can also differentiate into EpiCs upon activation of canonical Wnt signaling (Bao et al. (2016) Nature biomed. Eng. 1, 1-12)."}, "H9 hESCs [3]": {"tested_on": "H9 hESCs", "test": "Localized mesendoderm differentiation of hPSCs on adsorbed BMP4 patterns (BRACHYURY immunostaining, day 2)", "details": "for mesendoderm differentiation (BRA expression): two days in mTeSR1", "protocol": "[…] For glass surfaces, 1.5 ng/μl BMP4 solution was used. 5 ng/μl noggin solution was placed as a droplet to show an inhibitory effect of noggin on BMP4-induced mesendoderm differentiation. After washing, substrate was coated with Matrigel® for 2 hours as described above. Glass was coated with Matrigel® overnight. 0.025 mg/ml Synthemax (Corning, 3535) (final concentration, diluted in water) was added to a washed TC-treated plate and the plate was incubated for 2 hours at room temperature prior to cell seeding. 5 μg/ml truncated recombinant human vitronectin (Gibco, A14700) diluted in PBS was added to a washed TC-treated plate and the plate was incubated for 1 hour at room temperature prior to cell seeding. After ECM coating, the ECM solution was aspirated and hPSCs were singularized using Accutase (10 min incubation at 37° C.), resuspended in mTeSR1 supplemented with 5 μM Y-27632, and seeded at 5×10^5 to about 1×10^6 cells/cm^2 on coated substrates (day 0). On the next day (day 1), medium was changed with fresh mTeSR1. […]\nFor immunostaining of other protein markers, cells were fixed in 4% paraformaldehyde (Electron Microscopy Sciences, 15710-S) in PBS for 15 min at room temperature, washed with PBS three times, and incubated in diluted primary antibodies in 5% nonfat dry milk (Santa Cruz Biotechnology, sc-2324)/0.4% Triton X-100 (Fisher Scientific, BP151-500) PBS overnight at 4° C. […] After secondary antibody staining, the cells were washed with PBS three times, incubated in 2 μg/ml Hoechst 33342 diluted in PBS for 5 min at room temperature, washed with PBS two times, and analyzed under the fluorescence microscope. […]\nNext, BMP4 solution was placed on TC-treated plates in various patterns (droplet, letters, circle, heart, and star), and hPSCs seeded onto the substrate in mTeSR1 maintenance medium. […] Since the presence of inhibitory morphogens is also important in developmental patterning, a BMP inhibitor, noggin, was evaluated for antagonism to localized BMP4-induced mesendoderm differentiation. […]"}},
  "data": [
    {"molecule": "BMP4: human recombinant BMP4 (Invitrogen, PHC9534), morphogen adsorbed on the substrate (protein, UniProt P12644 293-408, looked up) Bone morphogenetic protein 4: SPKHHSQRARKKNKNCRRHSLYVDFSDVGWNDWIVAPPGYQAFYCHGDCPFPLADHLNSTNHAIVQTLVNSVNSSIPKACCVPTELSAISMLYLDEYDKVVLKNYQEMVVEGCGCR", "values": [
      {"measurement": "cardiomyocyte differentiation (cTnT)", "setting": "H9 hESCs [1]", "value": "localization of CMs to the patterned area"},
      {"measurement": "EpiC differentiation (WT1 expression)", "setting": "[2]", "value": "limited if any EpiC differentiation"},
      {"measurement": "mesendoderm differentiation (BRA expression)", "setting": "H9 hESCs [3]; BMP4 droplets adsorbed on TC-treated PS, Matrigel coating", "value": "induced localized mesendoderm differentiation"},
      {"measurement": "mesendoderm differentiation (BRA expression)", "setting": "H9 hESCs [3]; BMP4 droplets adsorbed on untreated PS surface", "value": "none of the BMP4 droplets induced mesendoderm differentiation"},
      {"measurement": "cell attachment on the patterned area", "setting": "H9 hESCs [3]; untreated PS surface, 0.1, 0.2, and 2.5 ng/ul BMP4 droplets", "value": "partially or fully inhibited cell attachment"}
    ]}
  ]
}
